In IntAct's records for PubMed 19407142:

B1: Abscisic acid receptor PYR1 (Arabidopsis thaliana (Mouse-ear cress)), O49686 (parent)
chain: MPSELTPEERSELKNSIAEFHTYQLDPGSCSSLHAQRIHAPPELVWSIVRRFDKPQTYKHFIKSCSVEQNFEMRVGCTRDVIVISGLPANTSTERLDILDDERRVTGFSIIGGEHRLTNYKSVTTVHRFEKENRIWTVVLESYVVDMPEGNSEDDTRMFADTVVKLNLQKLATVAEAMARNSGDGSGSQVT
B2: Protein phosphatase 2C 56 (Arabidopsis thaliana (Mouse-ear cress)), P49597 (parent)
chain: MEEVSPAIAGPFRPFSETQMDFTGIRLGKGYCNNQYSNQDSENGDLMVSLPETSSCSVSGSHGSESRKVLISRINSPNLNMKESAAADIVVVDISAGDEINGSDITSEKKMISRTESRSLFEFKSVPLYGFTSICGRRPEMEDAVSTIPRFLQSSSGSMLDGRFDPQSAAHFFGVYDGHGGSQVANYCRERMHLALAEEIAKEKPMLCDGDTWLEKWKKALFNSFLRVDSEIESVAPETVGSTSVVAVVFPSHIFVANCGDSRAVLCRGKTALPLSVDHKPDREDEAARIEAAGGKVIQWNGARVFGVLAMSRSIGDRYLKPSIIPDPEVTAVKRVKEDDCLILASDGVWDVMTDEEACEMARKRILLWHKKNAVAGDASLLADERRKEGKDPAAMSAAEYLSKLAIQRGSKDNISVVVVDLKPRRKLKSKPLN
B3: Protein phosphatase 2C 77 (Arabidopsis thaliana (Mouse-ear cress)), O04719 (parent)
chain: MDEVSPAVAVPFRPFTDPHAGLRGYCNGESRVTLPESSCSGDGAMKDSSFEINTRQDSLTSSSSAMAGVDISAGDEINGSDEFDPRSMNQSEKKVLSRTESRSLFEFKCVPLYGVTSICGRRPEMEDSVSTIPRFLQVSSSSLLDGRVTNGFNPHLSAHFFGVYDGHGGSQVANYCRERMHLALTEEIVKEKPEFCDGDTWQEKWKKALFNSFMRVDSEIETVAHAPETVGSTSVVAVVFPTHIFVANCGDSRAVLCRGKTPLALSVDHKPDRDDEAARIEAAGGKVIRWNGARVFGVLAMSRSIGDRYLKPSVIPDPEVTSVRRVKEDDCLILASDGLWDVMTNEEVCDLARKRILLWHKKNAMAGEALLPAEKRGEGKDPAAMSAAEYLSKMALQKGSKDNISVVVVDLKGIRKFKSKSLN

Variants of: B1
Details: with HAB1, Q9CAJ0
Sequence of HAB1, Q9CAJ0 (Q9CAJ0 whole entry): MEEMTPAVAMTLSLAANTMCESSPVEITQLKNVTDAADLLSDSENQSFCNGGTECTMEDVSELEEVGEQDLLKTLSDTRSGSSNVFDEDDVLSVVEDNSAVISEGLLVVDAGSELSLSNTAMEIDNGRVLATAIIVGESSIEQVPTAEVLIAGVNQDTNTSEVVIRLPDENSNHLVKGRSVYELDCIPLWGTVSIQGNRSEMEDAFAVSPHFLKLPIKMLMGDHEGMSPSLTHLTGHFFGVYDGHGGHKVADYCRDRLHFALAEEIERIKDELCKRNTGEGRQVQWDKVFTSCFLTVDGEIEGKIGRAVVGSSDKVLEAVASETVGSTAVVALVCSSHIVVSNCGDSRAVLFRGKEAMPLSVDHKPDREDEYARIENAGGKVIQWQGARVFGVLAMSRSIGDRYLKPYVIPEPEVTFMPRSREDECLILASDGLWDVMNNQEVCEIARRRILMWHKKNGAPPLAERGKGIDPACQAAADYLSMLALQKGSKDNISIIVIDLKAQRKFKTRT

| effect of a mutation on the interaction | Variant |
| --- | --- |
| disrupting interaction | S152L |
| disrupting interaction | P88S |

Variants of: B2
Details: with pyr1_arath PYR1, O49686

| effect of a mutation on the interaction | Variant |
| --- | --- |
| decreasing interaction | G180D |

Variants of: B3
Details: with pyr1_arath PYR1, O49686

| effect of a mutation on the interaction | Variant |
| --- | --- |
| disrupting interaction | G168D |
